{"source": "paper PMC11868609", "about": "(Communications Biology, 2025)", "binders": {"B1": {"name": "VapC3 toxin (natural protein)", "chain": "MRASPTSPPEQVVVDASAMVDLLARTSDRCSAVRARLARTAMHAPAHFDAEVLSALGRMQRAGALTVAYVDAALEELRQVPVTRHGLSSLLAGAWSRRDTLRLTDALYVELAETAGLVLLTTDERLARAWPSAHAIG"}}, "key": {"VapC35 toxin [1]": {"target": "T1, VapC35 toxin (M. tuberculosis, UniProt P9WF67 1-135)", "T1 sequence": "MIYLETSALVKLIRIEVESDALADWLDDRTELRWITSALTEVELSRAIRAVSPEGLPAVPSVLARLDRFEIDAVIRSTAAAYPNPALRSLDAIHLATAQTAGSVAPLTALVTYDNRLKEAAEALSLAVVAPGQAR", "test": "SEC-MALS"}, "VapC3 toxin [2]": {"target": "B1", "test": "SEC-MALS"}, "VapC35 toxin [3]": {"target": "T1, VapC35 toxin", "test": "MST"}, "VapC3 toxin [4]": {"target": "B1", "test": "MST"}, "SEC-MALS": {"target": "the molecule itself", "test": "SEC-MALS"}}, "note": "Where “and” joins values, the source holds several entries; their conditions need not be identical. Equal entries are not always repeated.", "data": [{"binder": "VapB3 antitoxin (natural protein) MLSRRTKTIVVCTLVCMARLNVYVPDELAERARARGLNVSALTQAAISAELENSATDAWLEGLEPRSTGARHDDVLGAIDAARDEFEA", "values": [{"measurement": "stoichiometry N", "setting": "VapC35 toxin [1]", "result": "0.5 antitoxin chains per toxin chain (2:4) and 1 antitoxin chains per toxin chain (4:4)"}, {"measurement": "stoichiometry N", "setting": "VapC3 toxin [2]", "result": "0.5 antitoxin chains per toxin chain (2:4) and 1 antitoxin chains per toxin chain (4:4)"}, {"measurement": "Kd", "setting": "VapC35 toxin [3]", "result": "~14", "unit": "nM"}, {"measurement": "Kd", "setting": "VapC3 toxin [4]", "result": "~7", "unit": "nM"}]}, {"binder": "B1", "values": [{"measurement": "stoichiometry N", "setting": "SEC-MALS", "result": 2, "unit": "subunits"}]}, {"binder": "VapB35 antitoxin (natural protein) MNEVSIRTLNQETSKVLARVKRGEEINLTERGKVIARIIPASAGPLDSLISTGSVQPARVHGPAPRPTIPMRGGLDSGTLLERMRAEERY", "values": [{"measurement": "stoichiometry N", "setting": "VapC35 toxin [1]", "result": "0.5 antitoxin chains per toxin chain (2:4) and 1 antitoxin chains per toxin chain (4:4)"}, {"measurement": "Kd", "setting": "VapC35 toxin [3]", "result": 1, "unit": "nM"}]}]}
